Consider 2 substances from publication doi:10.1101/2022.07.24.501275.

Common to all, as to test: SPR
In general terms: SPR reads the build-up and loss of mass on a sensor chip optically.

The target of test [1] is 16A Fab R32G (mouse | human).
Test [2] concerns the target 14A Fab G32R (mouse | human).
Test [3] deals with 16A Fab W34F (mouse | human).

A word on the Kd: it is a measure of binding affinity in units of concentration. Low values mean a tighter complex, high ones a looser complex. In the case of MUC1 glycopeptide RPAPGS(Tn)TAPPAHG, the KD(peptide)/KD(GalNAc-S) in test [1] was 1.9 fold. In test [2], the Kd stood at 128 nM.
Take MUC1 glycopeptide RPAPGST(Tn)APPAHG: the KD(peptide)/KD(GalNAc-T) in test [3] amounted to 2.8 fold.
